Results published in patent US20190151328A1 (published 2019).

Biological target: T1, human epidermal growth factor receptor 3 (HER3) (human, UniProt P21860 20-1342)
T1 construct: whole, on cells; also called ErbB3; HER3 protein
Assay: flow cytometry on HCC1569 cells, PE-coupled anti-human secondary antibody; one-site specific binding fit (GraphPad Prism)
Procedure: A human breast cancer cell line HCC1569 (CRL-2330) from ATCC was cultured in an RPMI1640 medium (purchased from Invitrogen Corp., containing 10% […] (manufactured by Invitrogen Corp.) and 2 mM L-glutamine (manufactured by Invitrogen Corp.)). The cells were dissociated from the culture plate using ACCUTASE® SOLUTION (Millipore Corp., SCR005) or EDTA (5 mM, phosphate buffered saline (PBS, 137 mM sodium chloride, 2.7 mM potassium chloride, 1.47 mM potassium dihydrogen phosphate, and 10.5 mM disodium hydrogen phosphate)), and the number of living cells was measured by trypan blue treatment. The same numbers of cells suspended in a fluorescence-activated cell sorting (FACS) buffer (PBS containing 3% FBS and 0.004% sodium azide) were inoculated to 96-well U-bottom plates, and the cells were precipitated by centrifugation and suspended in 100 uL of an ice-cooled antibody or antibody-drug conjugate dilution or FACS buffer.
The cells of each group were reacted with a primary antibody dilution for 45 minutes on ice and then washed with a FACS buffer. […]
FIG. 3 and Table 1 show the mean fluorescence intensity of HCC1569 treated with serial dilutions of U1-59 or each antibody-drug conjugate. The equilibrium binding affinity KD and the maximum binding strength Bmax were calculated using GraphPad Prism software.

Row | Bmax | Kd | Binder
1 | 29000 |  | Antibody-drug conjugate (3) (antibody, human IgG1, kappa, V domains shown, may carry one drug-linker molecule (L1 species of Common procedure F); position not given; drug-linker -(Succinimid-3-yl-N)-CH2CH2CH2CH2CH2-C(=O)-GGFG-NH-CH2CH2CH2-C(=O)-(NH-DX) (exatecan) on cysteines by thioether bond at the reduced disulfide bonds of the hinge part; positions not given; average 4.9 drug molecules per antibody (Common procedure E), also called ADC (3)) VH: QVQLQQWGAGLLKPSETLSLTCAVYGGSFSGYYWSWIRQPPGKGLEWIGEINHSGSTNYNPSLKSRVTISVETSKNQFSLKLSSVTAADTAVYYCARDKWTWYFDLWGRGTLVTVSS VL: not shown
2 |  | 2.73 nM | Antibody-drug conjugate (13) (antibody, human IgG1, kappa, V domains shown, may carry one drug-linker molecule (L1 species of Common procedure F); position not given; drug-linker -(Succinimid-3-yl-N)-CH2CH2CH2CH2CH2-C(=O)-GGFG-NH-CH2-O-CH2-C(=O)-(NH-DX) (exatecan) on cysteines by thioether bond at the reduced disulfide bonds of the hinge part; positions not given; average 6.2 (Common procedure E) or 7.0 (Common procedure F) drug molecules per antibody, also called ADC (13)) VH: QVQLQQWGAGLLKPSETLSLTCAVYGGSFSGYYWSWIRQPPGKGLEWIGEINHSGSTNYNPSLKSRVTISVETSKNQFSLKLSSVTAADTAVYYCARDKWTWYFDLWGRGTLVTVSS VL: not shown
